Measured values: paper PMC2839002 (Chromosoma, 2009)
Residue numbers refer to the chain shown, from its start. Names may count otherwise. Each block holds one binder with its values, some of them ahead of it.

Columns and labels:
[1] = biological target: His-T7-SMN (UniProt Q16637 1-294); assay: pull-down
[2] = biological target: His-T7-SmB′ (UniProt P14678 1-240); assay: pull-down

Chain of His-T7-SMN (Q16637 whole entry): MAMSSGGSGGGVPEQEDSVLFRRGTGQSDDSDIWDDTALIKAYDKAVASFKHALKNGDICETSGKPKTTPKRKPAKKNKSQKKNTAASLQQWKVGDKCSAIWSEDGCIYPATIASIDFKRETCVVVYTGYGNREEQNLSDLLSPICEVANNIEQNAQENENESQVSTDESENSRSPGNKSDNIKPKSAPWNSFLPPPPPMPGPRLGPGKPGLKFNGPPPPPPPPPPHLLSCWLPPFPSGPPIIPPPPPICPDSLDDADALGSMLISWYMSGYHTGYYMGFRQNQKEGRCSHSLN

B1: GST-C214 C6D (domain or fragment, human, UniProt P38432 362-576, looked up)
chain: AGAAGWRRSGSNGGGQAPGASPSVSLPASLGRGWGREENLFSWKGAKGRGMRGRGRGRGHPVSCVVNRSTDNQRQQQLNDVVKNSSTIIQNPVETPKKDYSLLPLLAAAPQVGEKIAFKLLELTSSYSPDVSDYKEGRILSHNPETQQVDIEILSSLPALREPGKFDLVYHNENGAEVVEYAVTQESKITVFWKELIDPRLIIEDPDNEDDEEPA
- binding result [1]: binds
- binding result [2]: binds

B2: GST-C214 DDE (domain or fragment, human, UniProt P38432 362-576, looked up)
chain: B1 chain with D205S, D207S, E209T
- binding result [1]: binds
- binding result [2]: binds

Next, values leading:

- binding result [1]: binds
- binding result [2]: binds
B3: GST-C214 S489D + DDE (domain or fragment, human, UniProt P38432 362-576, looked up)
chain: B1 chain with S128D, D205S, D207S, E209T

- binding result [2]: binds
B4: GST-coilin DDE (natural protein)
chain: MAASETVRLRLQFDYPPPATPHCTAFWLLVDLNRCRVVTDLISLIRQRFGFSSGAFLGLYLEGGLLPPAESARLVRDNDCLRVKLEERGVAENSVVISNGDINLSLRKAKKRAFQLEEGEETEPDCKYSKKHWKSRENNNNNEKVLDLEPKAVTDQTVSKKNKRKNKATCGTVGDDNEEAKRKSPKKKEKCEYKKKAKNPKSPKVQAVKDWANQRCSSPKGSARNSLVKAKRKGSVSVCSKESPSSSSESESCDESISDGPSKVTLEARNSSEKLPTELSKEEPSTKNTTADKLAIKLGFSLTPSKGKTSGTTSSSSDSSAESDDQCLMSSSTPECAAGFLKTVGLFAGRGRPGPGLSSQTAGAAGWRRSGSNGGGQAPGASPSVSLPASLGRGWGREENLFSWKGAKGRGMRGRGRGRGHPVSCVVNRSTDNQRQQQLNDVVKNSSTIIQNPVETPKKDYSLLPLLAAAPQVGEKIAFKLLELTSSYSPDVSDYKEGRILSHNPETQQVDIEILSSLPALREPGKFDLVYHNENGAEVVEYAVTQESKITVFWKELIDPRLIIESPSNTDDEEPA
